Source: patent US20150118260A1
Like-named read-outs stand apart in the source and are kept apart here.

Key:
[1] = molecular target: porcine CD80 on the porcine CD80-expressing B-cell lymphoma cell line LCL13271-5E4 (porcine)
[2] = molecular target: porcine CD80 on the porcine CD80-expressing B-cell lymphoma cell line LCL13271-5E4 (porcine); assay: cell-based or functional assay
[3] = molecular target: porcine CD80 on the porcine CD80-expressing B-cell lymphoma cell line LCL13271-5E4 (porcine); assay: flow cytometry on LCL13271-5E4 cells, MFI against concentration of biotinylated fusion toxin, non-linear least-squares fit

Substance	Kd [1]	protein synthesis inhibition (3H-leucine incorporation) in LCL13271-5E4 cells [2]	Kd [3]
DT390-bi-pCTLA-4-Non-N-Gly-6xHis (bi-non-N-glycosylated soluble porcine CTLA-4 fusion toxin)	4.7 nM	–	–
DT390-pCTLA4-Non-N-Gly-6xHis (single non-N-glycosylated soluble porcine CTLA-4 fusion toxin)	2 nM	0.33	–
DT390-pCTLA-4-Gly-6xHis (single glycosylated soluble porcine CTLA-4 fusion toxin)	–	0.67	17.3 nM
